Data published in the supplement of paper PMC10567573.

B1: TRAF3IP2 (parent)
chain: YGHDYPRAAYQQVIQPALPGQPLP
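Also: lentivirally expressed fusions sorted by FACS into six bins by GFP to DsRed ratio, PSI derived from sequencing read proportions per bin multiplied by bin number.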

Variants of: B1
Assay: protein stability index of a GFP-peptide fusion (GPS, HEK-293T) (PSI 1-6); higher = more stable
Settings: c terminus: a fixed tail appended
YGHDYPRAAYQQVIQPALPGQPLG [P24G] gave a protein stability index of 2.12.
With YGHDYPRAAYQQVIQPALPGQPLQ [P24Q] the protein stability index was 1.76.
YGHDYPRAAYQQVIQPALPGQPLT [P24T] gave a protein stability index of 2.59.
In the case of YGHDYPRAAYQQVIQPALPGQPLI [P24I], the protein stability index is reported as 1.78.
For YGHDYPRAAYQQVIQPALPGQPLE [P24E], the protein stability index was 1.42.
In the case of YCHDYPRAAYQQVIQPALPGQPLP [G2C], the protein stability index is reported as 1.67.
Variant YNHDYPRAAYQQVIQPALPGQPLP [G2N] has a protein stability index of 2.46.
With YEHDYPRAAYQQVIQPALPGQPLP [G2E] the protein stability index was 3.78.
In the case of YHHDYPRAAYQQVIQPALPGQPLP [G2H], the protein stability index is reported as 2.46.
With YYHDYPRAAYQQVIQPALPGQPLP [G2Y] the protein stability index was 2.38.
With YFHDYPRAAYQQVIQPALPGQPLP [G2F] the protein stability index was 3.36.
Work on YMHDYPRAAYQQVIQPALPGQPLP [G2M] yielded a protein stability index of 2.15.
For YSHDYPRAAYQQVIQPALPGQPLP [G2S], the protein stability index was 2.56.
For YGEDYPRAAYQQVIQPALPGQPLP [H3E], the protein stability index was 2.5.
In the case of YGPDYPRAAYQQVIQPALPGQPLP [H3P], the protein stability index is reported as 4.18.
For YGLDYPRAAYQQVIQPALPGQPLP [H3L], the protein stability index was 1.86.
YGTDYPRAAYQQVIQPALPGQPLP [H3T] showed a protein stability index of 1.73.
For YGYDYPRAAYQQVIQPALPGQPLP [H3Y], the protein stability index was 1.74.
YGRDYPRAAYQQVIQPALPGQPLP [H3R] showed a protein stability index of 2.19.
For YGWDYPRAAYQQVIQPALPGQPLP [H3W], the protein stability index was 1.69.
YGHDYPRAAYQQVIQPALPGQYLP [P22Y] gave a protein stability index of 1.75.
Work on YGHDYPRAAYQQVIQPALPGQCLP [P22C] yielded a protein stability index of 1.62.
YGHDYPRAAYQQVIQPALPGQQLP [P22Q] gave a protein stability index of 2.24.
In the case of YGHDYPRAAYQQVIQPALPGQGLP [P22G], the protein stability index is reported as 3.86.
YGHDYPRAAYQQVIQPALPGQTLP [P22T] showed a protein stability index of 2.33.
YGHDYPRAAYQQVIQPALPGQALP [P22A] showed a protein stability index of 1.93.
Variant YGHDYPRAAYQQVIQPALPGQLLP [P22L] has a protein stability index of 1.39.
In the case of YGHDYPRAAYQQVIQPALPGQWLP [P22W], the protein stability index is reported as 1.26.
Variant YGHDYPRAAYQQVIQPALPGQNLP [P22N] has a protein stability index of 2.11.
Work on YGHDYPRAAYQQVIQPALPGQVLP [P22V] yielded a protein stability index of 1.8.
YGHDYPRAAYQQVIQPKLPGQPLP [A17K] gave a protein stability index of 1.98.
Work on YGHDYPRAAYQQVIQPSLPGQPLP [A17S] yielded a protein stability index of 2.43.
YGHDYPRAAYQQVIQPFLPGQPLP [A17F] gave a protein stability index of 2.48.
For YGHDYPRAAYQQVIQPILPGQPLP [A17I], the protein stability index was 2.37.
YGHDYPRAAYQQVIQPVLPGQPLP [A17V] gave a protein stability index of 2.41.
For YGHDYPRAAYQQVIQPPLPGQPLP [A17P], the protein stability index was 2.2.
With YGHDYPRAAYQQVIQPWLPGQPLP [A17W] the protein stability index was 1.92.
For YGHDYPRAAYQQVIQPYLPGQPLP [A17Y], the protein stability index was 1.83.
Variant YGHDYPRAAYQQVLQPALPGQPLP [I14L] has a protein stability index of 1.77.
In the case of YGHDYPRAAYQQVGQPALPGQPLP [I14G], the protein stability index is reported as 1.92.
For YGHDYPRAAYQQVAQPALPGQPLP [I14A], the protein stability index was 1.5.
In the case of YGHDYPRAAYQQVEQPALPGQPLP [I14E], the protein stability index is reported as 2.
YGHDYPRAAYQQVIQPALPRQPLP [G20R] showed a protein stability index of 1.52.
YGHDYPRAAYQQVIQPALPIQPLP [G20I] gave a protein stability index of 1.58.
YGHDYPRAAYQQVIQPALPQQPLP [G20Q] gave a protein stability index of 2.04.
With YGHDYPRAAYQQVIQPALPYQPLP [G20Y] the protein stability index was 2.66.
Variant YGHDYPRAAYQQVIQPALPVQPLP [G20V] has a protein stability index of 1.69.
YGHDYPRAAYQQVIQPALPLQPLP [G20L] gave a protein stability index of 1.38.
Variant YGHDYPRAAYQQVIQPALPCQPLP [G20C] has a protein stability index of 2.04.
With YGHDYPRAAYQQVIQPALPNQPLP [G20N] the protein stability index was 2.68.
YGHDYPRAAYQQVIQPALPGEPLP [Q21E] showed a protein stability index of 2.2.
YGHDYPRAAYQQVIQPALPGPPLP [Q21P] showed a protein stability index of 2.95.
YGHDYPRAAYQQVIQPALPGCPLP [Q21C] gave a protein stability index of 2.74.
With YGHDYPRAAYQQVIQPALPGTPLP [Q21T] the protein stability index was 2.1.
YGHDYPRAAYQQVIQPALPGLPLP [Q21L] showed a protein stability index of 2.02.
YGHDYPRAAYQQVIQPALPGKPLP [Q21K] gave a protein stability index of 2.21.
In the case of YGHDYPRAAYQQVIQPALPGMPLP [Q21M], the protein stability index is reported as 2.67.
For YGHDYPRAAYQQVIQPALPGIPLP [Q21I], the protein stability index was 2.79.
Work on YGHDYPRAAYQQVIQPALPGWPLP [Q21W] yielded a protein stability index of 1.84.
YGHDYPRAAYQQVIQPALPGAPLP [Q21A] showed a protein stability index of 2.12.
YGHDYPRAAYQQVIVPALPGQPLP [Q15V] showed a protein stability index of 1.68.
Work on YGHDYPRAAYQQVIFPALPGQPLP [Q15F] yielded a protein stability index of 2.68.
Work on YGHDYPRAAYQQVICPALPGQPLP [Q15C] yielded a protein stability index of 2.22.
Variant YGHDYPRAAYQQVIWPALPGQPLP [Q15W] has a protein stability index of 3.01.
YGHDYPRAAYQQVINPALPGQPLP [Q15N] showed a protein stability index of 1.63.
For YGHDYPRAAYQQVIEPALPGQPLP [Q15E], the protein stability index was 2.1.
For YGHDYPRAAYQQVILPALPGQPLP [Q15L], the protein stability index was 2.23.
Work on YGHDYPRAAYQQVIMPALPGQPLP [Q15M] yielded a protein stability index of 1.59.
In the case of YGHDYPRAAYQQVIHPALPGQPLP [Q15H], the protein stability index is reported as 2.46.
YGHDYPRAAYQQVIRPALPGQPLP [Q15R] gave a protein stability index of 2.24.
Work on YGHDYPRSAYQQVIQPALPGQPLP [A8S] yielded a protein stability index of 1.93.
With YGHDYPRRAYQQVIQPALPGQPLP [A8R] the protein stability index was 3.2.
YGHDYPRQAYQQVIQPALPGQPLP [A8Q] showed a protein stability index of 2.65.
With YGHDYPRTAYQQVIQPALPGQPLP [A8T] the protein stability index was 2.8.
For YGHDYPRFAYQQVIQPALPGQPLP [A8F], the protein stability index was 2.94.
In the case of YGHDYPRNAYQQVIQPALPGQPLP [A8N], the protein stability index is reported as 2.3.
YGHDYPRHAYQQVIQPALPGQPLP [A8H] showed a protein stability index of 3.06.
For YGHDYPRGAYQQVIQPALPGQPLP [A8G], the protein stability index was 2.18.
With YGHDYPRAAYWQVIQPALPGQPLP [Q11W] the protein stability index was 1.94.
Work on YGHDYPRAAYYQVIQPALPGQPLP [Q11Y] yielded a protein stability index of 2.52.
For YGHDYPRAAYRQVIQPALPGQPLP [Q11R], the protein stability index was 1.59.
Work on YGHDYPRAAYDQVIQPALPGQPLP [Q11D] yielded a protein stability index of 2.05.
For YGHDYPRAAYFQVIQPALPGQPLP [Q11F], the protein stability index was 3.98.
With YGHDYPRAAYMQVIQPALPGQPLP [Q11M] the protein stability index was 1.65.
YGHDYPRATYQQVIQPALPGQPLP [A9T] showed a protein stability index of 1.97.
In the case of YGHDYPRAEYQQVIQPALPGQPLP [A9E], the protein stability index is reported as 2.38.
Work on YGHDYPRAVYQQVIQPALPGQPLP [A9V] yielded a protein stability index of 2.04.
Variant YGHDYPRAFYQQVIQPALPGQPLP [A9F] has a protein stability index of 2.15.
YGHDYPRAPYQQVIQPALPGQPLP [A9P] gave a protein stability index of 2.11.
For YGHDYPRALYQQVIQPALPGQPLP [A9L], the protein stability index was 2.16.
With YGHDYPKAAYQQVIQPALPGQPLP [R7K] the protein stability index was 2.18.
YGHDYPPAAYQQVIQPALPGQPLP [R7P] gave a protein stability index of 2.41.
Variant YGHDYPSAAYQQVIQPALPGQPLP [R7S] has a protein stability index of 2.65.
YGHDYPVAAYQQVIQPALPGQPLP [R7V] showed a protein stability index of 2.56.
